1 molecule from patent publication US7223392 (dated 2007) can be followed below.

The target of one assay is p5E8G1. The assay can be described thus: apparent Kd.
Another assay addresses p5E8G1N-. Put plainly: apparent Kd.

B1: human CD23 (receptor)
chain: MELQVSSGFVCNTCPEKWINFQRKCYYFGKGTKQWVHARYACDDMEGQLVSIHSPEEQDFLTKHASHTGSWIGLRNLDLKGEFIWVDGSHVDYSNWAPGEPTSRSQGEDCVMMRGSGRWNDAFCDRKLGAWVCDRLATCTPPASEGSAESMGPDSRPDPDGRLPTPSAPLHS
Regarding B1, the Kd with p5E8G1 and with p5E8G1N- was 0.7 nM each time.
